Measurements taken from patent publication US20230213525.

What was measured:
[1] = target: T1, ElaSub1_CBM_His chimeric protein (variant 3), separated from the TrxA tag and coupled with Remazol Brilliant Blue
T1 chain: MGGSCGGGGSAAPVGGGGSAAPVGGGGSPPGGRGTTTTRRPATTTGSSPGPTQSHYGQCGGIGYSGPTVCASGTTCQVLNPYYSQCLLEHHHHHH

[2] = target: T2, TrxA_ElaSub1_CBM-His fusion protein
T2 chain: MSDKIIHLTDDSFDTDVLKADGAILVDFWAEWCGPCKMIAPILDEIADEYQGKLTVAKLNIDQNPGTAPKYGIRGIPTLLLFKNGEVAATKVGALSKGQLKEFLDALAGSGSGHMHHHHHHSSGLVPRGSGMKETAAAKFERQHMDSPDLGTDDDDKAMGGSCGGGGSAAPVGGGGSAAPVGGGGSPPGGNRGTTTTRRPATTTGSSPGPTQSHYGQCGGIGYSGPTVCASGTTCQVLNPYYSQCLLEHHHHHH

Protein	colour of the supernatant (dye release from the filter strip carrying the chimeric peptide, 30 min, 0.05 U/ml HLE) [1]	separation of the chimeric construct from the TrxA tag (SDS-PAGE) [2]
human leukocyte elastase (HLE) (protein) IVGGRRARPHAWPFMVSLQLRGGHFCGATLIAPNFVMSAAHCVANVNVRAVRVVLGAHNLSRREPTRQVFAVQRIFENGYDPVNLLNDIVILQLNGSATINANVQVAQLPAQGRRLGNGVQCLAMGWGLLGRNRGIASVLQELNVTVVTSLCRRSNVCTLVRGRQAGVCFGDSGSPLVCNGLIHGIASFVRGGCASGLYPDAFAPVAQFVNWIDSIIQ	Initially non coloured samples (clear supernatant) that exhibit elastase activity developed a blue colour	
recombinant expressed bovine enterokinase from Merck Millipore (protein) IVGGSDSREGAWPWVVALYFDDQQVCGASLVSRDWLVSAAHCVYGRNMEPSKWKAVLGLHMASNLTSPQIETRLIDQIVINPHYNKRRKNNDIAMMHLEMKVNYTDYIQPICLPEENQVFPPGRICSIAGWGALIYQGSTADVLQEADVPLLSNEKCQQQMPEYNITENMVCAGYEAGGVDSCQGDSGGPLMCQENNRWLLAGVTSFGYQCALPNRPGVYARVPRFTEWIQSFLH		The separation of the desired chimeric construct from the TrxA-Tag was verified by SDS-PAGE.
